# PMC6860424, “Structural analysis of the manganese transport regulator MntR from Bacillus halodurans in apo and manganese bound forms” (PLoS ONE, 2019)
# B1: manganese transport regulator MntR from Bacillus halodurans (natural protein, UniProt Q9K943 1-139, looked up)
# chain: MPTPSMEDYLERIYLLIEEKGYARVSDIAEALEVHPSSVTKMVQKLDKSDYLVYERYRGLILTAKGKKIGKRLVYRHDLLEDFLKMIGVDSDHIYEDVEGIEHHLSWDAIDRIGDLVQYFQEDPSRLNDLREVQKKNEE
# notes: MntR homologue BH2807 of Bacillus halodurans, a protein of 139 amino acids; gene amplified from genomic DNA into pET-28b(+) NdeI/XhoI; subunit described as residues 1-71 (domain 1) and 72-139 (domain 2); Homodimer in both crystal forms; also called BhMntR; BH2807; source: E. coli BL21(DE3) Star pLysS, purified (Ni IMAC, Superdex 200 gel filtration)
# Target: the molecule itself
# Test: crystal structure; apo BhMntR; sitting-drop vapor diffusion at 296 K, 0.1 M sodium/potassium phosphate pH 6.2, 0.4 M magnesium formate; 2.3 Å; two subunits in the asymmetric unit
protein,measurement,value
B1,stoichiometry N,2
